Experimental data reported in doi:10.1101/2021.02.18.431627 (bioRxiv, 2021).

B1: GlyR-α3L-eGFP (glycine receptor α3, long splice variant L, N-terminally tagged with eGFP) (receptor, mouse, UniProt Q91XP5 34-464, looked up)
chain: ARSRSAPMSPSDFLDKLMGRTSGYDARIRPNFKGPPVNVTCNIFINSFGSIAETTMDYRVNIFLRQKWNDPRLAYSEYPDDSLDLDPSMLDSIWKPDLFFANEKGANFHEVTTDNKLLRIFKNGNVLYSIRLTLTLSCPMDLKNFPMDVQTCIMQLESFGYTMNDLIFEWQDEAPVQVAEGLTLPQFLLKEEKDLRYCTKHYNTGKFTCIEVRFHLERQMGYYLIQMYIPSLLIVILSWVSFWINMDAAPARVALGITTVLTMTTQSSGSRASLPKVSYVKAIDIWMAVCLLFVFSALLEYAAVNFVSRQHKELLRFRRKRKNKTEAFALEKFYRFSDTDDEVRESRFSFTAYGMGPCLQAKDGVVPKGPNHAVQVMPKSPDEMRKVFIDRAKKIDTISRACFPLAFLIFNIFYWVIYKILRHEDIHQQQD

Tests used:
[1] = target: GlyR-α3L-eGFP (glycine receptor α3, long splice variant L, N-terminally tagged with eGFP) (mouse) (UniProt Q91XP5); assay: molecular brightness by raster image correlation spectroscopy
[2] = target: GlyR-α3L-eGFP (glycine receptor α3, long splice variant L, N-terminally tagged with eGFP) (mouse) (UniProt Q91XP5); assay: subunit counting by stepwise photobleaching
[3] = target: the molecule itself; assay: molecular brightness by raster image correlation spectroscopy
[4] = target: the molecule itself; assay: subunit counting by stepwise photobleaching

Molecule	N (α3L-eGFP subunits per heteropentamer, in a few cells) [1]	N (α3L-eGFP subunits per heteropentamer) [2]	heteropentameric fraction (fit with a 2nd order binomial) [2]	heteropentameric fraction (fit with a 3rd order binomial) [2]	heteropentameric fraction (fit with a 4th order binomial) [2]	stoichiometry N [3]	stoichiometry N [4]
GlyR-α3K-mCherry (glycine receptor α3, short splice variant K, N-terminally tagged with mCherry)	1	2 to 4	23%	36%	67%	–	–
B1	–	–	–	–	–	~5	5
